Measurements reported in patent publication US20080154022A1.

Biological target: bFGF receptor on BHK-21 (baby hamster kidney derived) cells (hamster)
Experiment: displacement of [^125I]-bFGF from BHK-21 cells, radioreceptor assay, IC50 read from the graph

IC50 [nM]	Substance
0.4	Biotinylated bFGF (monobiotinylated recombinant human bFGF) (from UniProt P09038 143-288) (ligand)
0.56	Complex of bio-bFGF and the OX26/streptavidin conjugate (from UniProt P09038 143-288; P22629 37-163)
0.12	Recombinant human basic fibroblast growth factor (bFGF) (from UniProt P09038 143-288) (ligand)
